Data as given in patent publication US7432061B2, “Assays for measuring matrix metalloproteinase activities” (BioZyme, Inc., priority 2002, dated 2008).

Biological target: T1, gelatinase A (Homo sapiens, UniProt P08253)
T1 sequence (P08253 110-660): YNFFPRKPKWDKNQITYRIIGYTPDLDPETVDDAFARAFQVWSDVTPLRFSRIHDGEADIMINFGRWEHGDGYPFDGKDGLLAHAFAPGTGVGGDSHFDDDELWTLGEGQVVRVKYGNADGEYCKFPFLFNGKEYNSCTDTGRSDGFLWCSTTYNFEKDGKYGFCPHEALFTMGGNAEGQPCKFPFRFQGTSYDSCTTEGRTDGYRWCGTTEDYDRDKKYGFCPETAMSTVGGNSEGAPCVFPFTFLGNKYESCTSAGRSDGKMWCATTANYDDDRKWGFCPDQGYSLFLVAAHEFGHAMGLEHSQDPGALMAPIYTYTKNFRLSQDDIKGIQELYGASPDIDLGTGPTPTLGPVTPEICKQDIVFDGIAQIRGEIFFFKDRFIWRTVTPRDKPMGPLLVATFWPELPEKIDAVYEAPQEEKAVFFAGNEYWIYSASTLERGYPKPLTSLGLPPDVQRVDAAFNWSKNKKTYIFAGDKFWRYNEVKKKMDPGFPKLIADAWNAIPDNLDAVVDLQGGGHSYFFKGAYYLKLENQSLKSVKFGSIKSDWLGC
Test: Inhibition with type II collagen, FlSub3 cleavage
Assay type: biochemical
Details: for Improvement In Selectivity (Gel-A v Col-3): 44 ug/ml Type II Collagen vs no Type II Collagen, FlSb3; for Average Percent Inhibition from 1.1 to 6.6 Hours / Average Percent Inhibition: GELA(.025 nM)
Method: In a 96 well plate, collagenase 3 (0.013 nM), collagenase 1 (1.25 nM), stromelysin 1 (0.8 nM), gelatinase A (0.025 nM), or gelatinase B (0.008 nM) were reacted with 20 uM FlSub3 in standard assay buffer in the presence of varying concentrations of bovine type II collagen (0.18-44 ug/ml). The type II collagen, a 1 mg/ml stock in 0.5M acetic acid, was transferred into assay buffer by passing the material through a biospin P6 column from Amersham. The reaction was initiated by addition of substrate to enzyme containing either buffer or an appropriate amount of type II collagen. Data points were taken every 15 min over a period of 15 hours using an excitation and emission wavelength of 350 and 485 nm respectively. The usable data (1-6 hours), was taken and the percent inhibition by type II collagen was calculated for each enzyme and plotted as a function of inhibitor concentration and time in the assay. It should be noted that the percent inhibition varies with time as the bovine substrate is consumed during the reaction course.

“Type II Collagen: bovine type II collagen, full length MMP substrate used as inhibitor of gelatinases” was tested. Which “Improvement In Selectivity (Gel-A v Col-3)” value did it give?
Its value is 80 fold.

What about the “Improvement In Selectivity (Gel-A v Col-3)” value (listed as collagen) of the same substance?
Its value is “approximately 80 fold”.

What about the “Average Percent Inhibition from 1.1 to 6.6 Hours” value (Type II Collagen 0.18 ug/ml) of the same substance?
Its value is 2%.

What about the “Average Percent Inhibition from 1.1 to 6.6 Hours” value (Type II Collagen 0.54 ug/ml) of the same substance?
The value was 6%.

And the “Average Percent Inhibition from 1.1 to 6.6 Hours” value (Type II Collagen 1.63 ug/ml)?
Its value is −52%.

And the “Average Percent Inhibition from 1.1 to 6.6 Hours” value (Type II Collagen 4.89 ug/ml)?
Its value is 32%.

And the “Average Percent Inhibition from 1.1 to 6.6 Hours” value (Type II Collagen 14.67 ug/ml)?
The value was 56%.

What about the “Average Percent Inhibition from 1.1 to 6.6 Hours” value (Type II Collagen 44.00 ug/ml) of the same substance?
The value was 83%.

And the “Average Percent Inhibition” value (TypeIICOL(1.6 ug/ul), FISb3, hour 0.10 to 1.10)?
Its value is −27%.

And the “Average Percent Inhibition” value (TypeIICOL(1.6 ug/ul), FISb3, hour 1.10 to 2.10)?
The value was 4%.

What about the “Average Percent Inhibition” value (TypeIICOL(1.6 ug/ul), FISb3, hour 1.10 to 6.60) of the same substance?
Its value is −52%.

What about the “Average Percent Inhibition” value (TypeIICOL(1.6 ug/ul), FISb3, hour 2.10 to 3.10) of the same substance?
The value was −11%.

What about the “Average Percent Inhibition” value (TypeIICOL(1.6 ug/ul), FISb3, hour 3.10 to 4.10) of the same substance?
The value was −37%.

And the “Average Percent Inhibition” value (TypeIICOL(1.6 ug/ul), FISb3, hour 4.10 to 5.10)?
Its value is −68%.

And the “Average Percent Inhibition” value (TypeIICOL(1.6 ug/ul), FISb3, hour 5.10 to 6.10)?
Its value is −104%.

And the “Average Percent Inhibition” value (TypeIICOL(4.9 ug/ul), FISb3, hour 0.10 to 1.10)?
The value was 37%.

What about the “Average Percent Inhibition” value (TypeIICOL(4.9 ug/ul), FISb3, hour 1.10 to 2.10) of the same substance?
Its value is 43%.

What about the “Average Percent Inhibition” value (TypeIICOL(4.9 ug/ul), FISb3, hour 1.10 to 6.60) of the same substance?
The value was 32%.

And the “Average Percent Inhibition” value (TypeIICOL(4.9 ug/ul), FISb3, hour 2.10 to 3.10)?
The value was 46%.

And the “Average Percent Inhibition” value (TypeIICOL(4.9 ug/ul), FISb3, hour 3.10 to 4.10)?
The value was 37%.

And the “Average Percent Inhibition” value (TypeIICOL(4.9 ug/ul), FISb3, hour 4.10 to 5.10)?
Its value is 27%.

And the “Average Percent Inhibition” value (TypeIICOL(4.9 ug/ul), FISb3, hour 5.10 to 6.10)?
Its value is 19%.

What about the “Average Percent Inhibition” value (TypeIICOL(15 ug/ul), FISb3, hour 0.10 to 1.10) of the same substance?
Its value is 56%.

And the “Average Percent Inhibition” value (TypeIICOL(15 ug/ul), FISb3, hour 1.10 to 2.10)?
The value was 64%.

What about the “Average Percent Inhibition” value (TypeIICOL(15 ug/ul), FISb3, hour 1.10 to 6.60) of the same substance?
The value was 56%.

And the “Average Percent Inhibition” value (TypeIICOL(15 ug/ul), FISb3, hour 2.10 to 3.10)?
Its value is 70%.

And the “Average Percent Inhibition” value (TypeIICOL(15 ug/ul), FISb3, hour 3.10 to 4.10)?
Its value is 64%.

What about the “Average Percent Inhibition” value (TypeIICOL(15 ug/ul), FISb3, hour 4.10 to 5.10) of the same substance?
The value was 53%.

And the “Average Percent Inhibition” value (TypeIICOL(15 ug/ul), FISb3, hour 5.10 to 6.10)?
Its value is 41%.

And the “Average Percent Inhibition” value (TypeIICOL(44 ug/ul), FISb3, hour 0.10 to 1.10)?
Its value is 58%.

And the “Average Percent Inhibition” value (TypeIICOL(44 ug/ul), FISb3, hour 1.10 to 2.10)?
The value was 78%.

What about the “Average Percent Inhibition” value (TypeIICOL(44 ug/ul), FISb3, hour 1.10 to 6.60) of the same substance?
Its value is 83%.

And the “Average Percent Inhibition” value (TypeIICOL(44 ug/ul), FISb3, hour 2.10 to 3.10)?
Its value is 86%.

And the “Average Percent Inhibition” value (TypeIICOL(44 ug/ul), FISb3, hour 3.10 to 4.10)?
The value was 87%.

What about the “Average Percent Inhibition” value (TypeIICOL(44 ug/ul), FISb3, hour 4.10 to 5.10) of the same substance?
The value was 85%.

What about the “Average Percent Inhibition” value (TypeIICOL(44 ug/ul), FISb3, hour 5.10 to 6.10) of the same substance?
Its value is 82%.

What about the “Average Percent Inhibition” value (TypeIICOL(.18 ug/ul), FISb3, hour 0.10 to 1.10) of the same substance?
The value was 3%.

And the “Average Percent Inhibition” value (TypeIICOL(.18 ug/ul), FISb3, hour 1.10 to 2.10)?
Its value is 9%.

What about the “Average Percent Inhibition” value (TypeIICOL(.18 ug/ul), FISb3, hour 1.10 to 6.60) of the same substance?
The value was 2%.

What about the “Average Percent Inhibition” value (TypeIICOL(.18 ug/ul), FISb3, hour 2.10 to 3.10) of the same substance?
The value was 7%.

What about the “Average Percent Inhibition” value (TypeIICOL(.18 ug/ul), FISb3, hour 3.10 to 4.10) of the same substance?
The value was 3%.

And the “Average Percent Inhibition” value (TypeIICOL(.18 ug/ul), FISb3, hour 4.10 to 5.10)?
Its value is 0%.

And the “Average Percent Inhibition” value (TypeIICOL(.18 ug/ul), FISb3, hour 5.10 to 6.10)?
Its value is −3%.

And the “Average Percent Inhibition” value (TypeIICOL(.55 ug/ul), FISb3, hour 0.10 to 1.10)?
The value was 2%.

And the “Average Percent Inhibition” value (TypeIICOL(.55 ug/ul), FISb3, hour 1.10 to 2.10)?
The value was 11%.

And the “Average Percent Inhibition” value (TypeIICOL(.55 ug/ul), FISb3, hour 1.10 to 6.60)?
The value was 6%.

What about the “Average Percent Inhibition” value (TypeIICOL(.55 ug/ul), FISb3, hour 2.10 to 3.10) of the same substance?
Its value is 12%.

And the “Average Percent Inhibition” value (TypeIICOL(.55 ug/ul), FISb3, hour 3.10 to 4.10)?
Its value is 8%.

What about the “Average Percent Inhibition” value (TypeIICOL(.55 ug/ul), FISb3, hour 4.10 to 5.10) of the same substance?
Its value is 4%.

What about the “Average Percent Inhibition” value (TypeIICOL(.55 ug/ul), FISb3, hour 5.10 to 6.10) of the same substance?
Its value is −1%.

And the “inhibition of gelatinase A by type II collagen” value (highest concentration (44 ug/ml), six hour time course, FlSub3)?
Its value is “Almost complete inhibition”.
